From patent US20260042834A1 (HBM ALPHA THERAPEUTICS, published 2026)
Several values for one entry are separate records, joined by “and”; a condition that tells them apart may be missing. Equal entries are not always repeated. Where two headings read alike, the source gives them in different places. Each block holds one binder with its values, some of them ahead of it.

Columns and labels:
biotinylated CRH [1] = target: T1, biotinylated CRH (human and mouse, not fully specified; biotinylated, position not stated); assay: Octet in-tandem, row = 1st mAb; competitor (2nd mAb) PR302309-8
T1 construct: also called Biotin-CRH; biotin-labeled CRH
T1 peptide: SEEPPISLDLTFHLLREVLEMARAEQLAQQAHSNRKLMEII
Experimental: (§1) SA sensors (Fortebio, Cat #18-5019) were hydrated in running buffer for 10 mins.

biotinylated CRH [2] = target: T1, biotinylated CRH; assay: Octet in-tandem, row = 1st mAb; competitor (2nd mAb) PR302341-34
Experimental: as §1

biotinylated CRH [3] = target: T1, biotinylated CRH; assay: Octet in-tandem, row = 1st mAb; competitor (2nd mAb) PR005660
Experimental: as §1

biotinylated CRH [4] = target: T1, biotinylated CRH; assay: Octet in-tandem, row = 1st mAb; competitor (2nd mAb) PR302334
Experimental: as §1

biotinylated CRH [5] = target: T1, biotinylated CRH; assay: Octet in-tandem, row = 1st mAb; competitor (2nd mAb) PR006669
Experimental: as §1

biotinylated CRH [6] = target: T1, biotinylated CRH; assay: Octet in-tandem, row = 1st mAb; competitor (2nd mAb) PR303394
Experimental: as §1

biotinylated CRH [7] = target: T1, biotinylated CRH; assay: Octet in-tandem, row = 1st mAb; competitor (2nd mAb) PR301777
Experimental: as §1

biotinylated CRH [8] = target: T1, biotinylated CRH; assay: Octet BLI, biotinylated CRH on SA sensor
human UCN1 peptide = target: T2, human UCN1 peptide (human, UniProt P55089 83-122, not fully specified; biotin at N- or C-terminus in the ELISA); assay: ELISA, biotinylated hUCN1 on streptavidin plates
T2 construct: also called hUCN1; hUCN1 (NT Biotin)
T2 peptide (looked up): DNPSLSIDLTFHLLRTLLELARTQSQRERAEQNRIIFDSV

human UCN2 peptide = target: T3, human UCN2 peptide (human, UniProt Q96RP3 72-109, limits assumed, not fully specified; biotin at N- or C-terminus in the ELISA); assay: ELISA, biotinylated hUCN2 on streptavidin plates
T3 construct: also called hUCN2; hUCN2 (NT Biotin)
T3 peptide (looked up): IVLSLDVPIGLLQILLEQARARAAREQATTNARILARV
Experimental: (§2) Streptavidin (Thermo, Cat: 21125) was diluted in PBS with a concentration of 2 μg/mL. 100 μL of diluted streptavidin was added per well to ELISA microplates, and the plates were incubated overnight at 4° C. Plates were blocked with ELISA blocking solution (containing 2% w/v BSA, 0.05% (v/v) Tween-20, pH 7.4 PBS buffer) at 37° C. for 1 hour, and then incubated with either 1 μg/mL hUCN1 (NT Biotin), hUCN1 (CT Biotin), hUCN2 (NT Biotin), hUCN2 (CT Biotin), hUCN3 (NT Biotin), or hUCN3 (CT Biotin) for 1 hour at 37° C. […] 100 μl of TMB Substrate (Biopanda, Cat: TMB-S-003) was added, and the plates were incubated at room temperature for 15 minutes. 100 μL of ELISA stopping solution (Solarbio, Cat #: C1058) was then added to terminate the reaction, and the OD450 nm was determined by an ELISA plate reader (Molecular Devices, Spectra max 384 plus).

human UCN3 peptide = target: T4, human UCN3 peptide (human, UniProt Q969E3 120-157, not fully specified; biotin at N- or C-terminus in the ELISA); assay: ELISA, biotinylated hUCN3 on streptavidin plates
T4 construct: also called hUCN3; hUCN3 (NT Biotin)
T4 peptide (looked up): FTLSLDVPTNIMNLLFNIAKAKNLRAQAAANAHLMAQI
Experimental: as §2

[9] = target: T5, corticotropin-releasing hormone (CRH) peptide (human and mouse (same sequence), not fully specified); assay: cell-based or functional assay
T5 peptide: T1 peptide

CRH (NT-Biotin) [10] = target: T6, CRH (NT-Biotin) (human and mouse (same sequence), not fully specified; biotin at the N-terminus); assay: ELISA, biotinylated CRH on streptavidin plate
T6 peptide: T1 peptide
Experimental: (§3) Streptavidin (Thermo, Cat: 21125) was diluted in PBS to a concentration of 2 μg/ml. 100 μl of diluted streptavidin was added per well to ELISA microplates, and the plates were incubated overnight at 4° C. […] 100 μL of 3,3′,5,5′-tetramethylbenzidine (TMB) substrate (Biopanda, Cat: TMB-S-003) was added, and the plates were incubated at room temperature for 15 minutes. 100 μL of ELISA stopping solution (Solarbio, Cat #: C1058) was added to terminate the reaction, and the optical density at 450 nm (OD450 nm) was determined by an ELISA plate reader (Molecular Devices, Spectra max 384 plus).

CRH (CT-Biotin) [11] = target: T7, CRH (CT-Biotin) (human and mouse (same sequence), biotin on an added C-terminal K (CRH-K-Biotin)); assay: ELISA, biotinylated CRH on streptavidin plate
T7 construct: also called Peptide 4 (CRH-Biotin)
T7 peptide: T1 peptide
Experimental: as §3

[12] = target: T5, corticotropin-releasing hormone (CRH) …; assay: cell-based or functional assay
[13] = target: T5, corticotropin-releasing hormone (CRH) …; assay: cell-based or functional assay
CRH (NT-Biotin) [14] = target: T6, CRH (NT-Biotin); assay: ELISA, biotinylated CRH on streptavidin plate
Experimental: as §3

CRH (CT-Biotin) [15] = target: T7, CRH (CT-Biotin); assay: ELISA, biotinylated CRH on streptavidin plate
Experimental: as §3

CRH (NT-Biotin) [16] = target: T6, CRH (NT-Biotin); assay: ELISA, biotinylated CRH on streptavidin plate
Method in brief: (§4)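 Streptavidin coat 2 μg/ml in PBS, o/n 4° C. TMB 15 min RT, stop solution, read OD450 nm.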

CRH (CT-Biotin) [17] = target: T7, CRH (CT-Biotin); assay: ELISA, biotinylated CRH on streptavidin plate
Method in brief: as §4

[18] = target: T5, corticotropin-releasing hormone (CRH) …; assay: cell-based or functional assay
CRH (NT-Biotin) [19] = target: T6, CRH (NT-Biotin); assay: ELISA, biotinylated CRH on streptavidin plate
Experimental: as §3

CRH (CT-Biotin) [20] = target: T7, CRH (CT-Biotin); assay: ELISA, biotinylated CRH on streptavidin plate
Experimental: as §3

[21] = target: T5, corticotropin-releasing hormone (CRH) …; assay: cell-based or functional assay
[22] = target: T5, corticotropin-releasing hormone (CRH) …; assay: cell-based or functional assay
CRH (NT-Biotin) [23] = target: T6, CRH (NT-Biotin); assay: ELISA, biotinylated CRH on streptavidin plate
Experimental: as §3

CRH (CT-Biotin) [24] = target: T7, CRH (CT-Biotin); assay: ELISA, biotinylated CRH on streptavidin plate
Experimental: as §3

CRH (NT-Biotin) [25] = target: T6, CRH (NT-Biotin); assay: ELISA, biotinylated CRH on streptavidin plate
Experimental: as §3

CRH (CT-Biotin) [26] = target: T7, CRH (CT-Biotin); assay: ELISA, biotinylated CRH on streptavidin plate
Experimental: as §3

- % Inhibition (biotinylated CRH [1]): 91%
- % Inhibition (biotinylated CRH [2]): 88%
- % Inhibition (biotinylated CRH [3]): 92%
- % Inhibition (biotinylated CRH [4]): 95%
- % Inhibition (biotinylated CRH [5]): 93%
- % Inhibition (biotinylated CRH [6]): 89%
- % Inhibition (biotinylated CRH [7]): 90%
- Kd (biotinylated CRH [8]): < 0.001 nM
- koff (biotinylated CRH [8]): < 1e-07 s⁻¹
- kon (biotinylated CRH [8]): 669000 M⁻¹ s⁻¹
B1: PR302334 (antibody, human IgG1, kappa, V domains shown)
VH: EVKLVESGGGLVKPGGSLKLSCAASGFTFSTYAMSWVRQTPEKRLEWVASIRSGGTTYYPDSVKGRFTISRDNARNILYLQMSSLRSEDTAIYYCTRGIDWGQGTLVTVSA
VL: NIVMTQTPKFLLVSAGDRITITCKASQSVNNDVAWYQQKPGQSPKLLIYYASNRYTGVPDRFTGSGYGTDFTFTISTVQAEDLAVYFCQQDYSSWTFGGGTNLEIKR
notes: Series 9; mouse variable domains with human IgG1 wildtype Fc

- binding result (human UCN1 peptide): no binding (tested: 100 nM)
- binding result (human UCN2 peptide): no binding (tested: 100 nM)
- binding result (human UCN3 peptide): no binding (tested: 100 nM)
B2: PR302334-26 (antibody, human IgG1, kappa, V domains shown)
VH: EVQLVESGGGLVQPGGSLRLSCAASGFTFSTYAMSWVRQAPGKGLEWVASIRSGGTTYYPDSVKGRFTISRDNSKNSLYLQMNSLRAEDTAVYYCTRGIDWGQGTTVTVSS
VL: DIVMTQSPDSLAVSLGERATINCKASQSVNNDVAWYQQKPGQPPRLLIYYASNRYTGVPDRFSGSGSGTDFTLTISSLQAEDLAVYFCQQDYSSWTFGGGTKVEIKR
notes: Humanized variant of PR302334

- hCRHR1 Luciferase Reporter Assay IC50 [9]: 1.83 nM
- mCrhr1 Luciferase Reporter Assay IC50 [9]: 5.24 nM
- EC50 (CRH (NT-Biotin) [10]): 0.039 nM
- EC50 (CRH (CT-Biotin) [11]): 0.07 nM
- mCrhr1 Luciferase Reporter Assay IC50 [12]: 5.24 nM
- hCRHR1 Luciferase Reporter Assay IC50 [13]: 3.69 nM
- mCrhr1 Luciferase Reporter Assay IC50 [13]: 13 nM
- EC50 (CRH (NT-Biotin) [14]): 0.039 nM
- EC50 (CRH (CT-Biotin) [15]): 0.07 nM
- EC50 (CRH (NT-Biotin) [16]): 0.029 nM
- EC50 (CRH (CT-Biotin) [17]): 0.064 nM and 0.032 nM
- hCRHR1 Luciferase Reporter Assay IC50 [18]: 1.83 nM
- mCrhr1 Luciferase Reporter Assay IC50 [18]: 5.24 nM
- EC50 (CRH (NT-Biotin) [19]): 0.039 nM
- EC50 (CRH (CT-Biotin) [20]): 0.07 nM
- hCRHR1 Luciferase Reporter Assay IC50 [21]: 5.41 nM
- mCrhr1 Luciferase Reporter Assay IC50 [21]: 18.5 nM
- hCRHR1 Luciferase Reporter Assay IC50 [22]: 3.69 nM and 4.87 nM
- mCrhr1 Luciferase Reporter Assay IC50 [22]: 17 nM and 7.78 nM
- EC50 (CRH (NT-Biotin) [23]): 0.039 nM
- EC50 (CRH (CT-Biotin) [24]): 0.07 nM
- EC50 (CRH (NT-Biotin) [25]): 0.029 nM
- EC50 (CRH (CT-Biotin) [26]): 0.032 nM
B3: PR004290 (antibody, human IgG1, kappa, V domains shown)
VH: EVQLVESGGVLVQPGGSLRLSCAASGFTFSSYWMTWVRQAPGKGLEWVANIKQDGSEKYYVDSVKGRFTISRDNAKNSLFLQMNSLRAEDTAVYYCARTLIFDYWGQGTLVTVSS
VL: DIVMTQSPLSLPVTPGEPASISCRSSQSLLHSTGYNSLEWYLQKPGQSPQLLIYLGSNRASGVPDRFSGSGSGTDFTLKISRVEAEDVGIYYCMQTLQTPITFGQGTRLEIKR
notes: Series 1; human IgG1 wildtype Fc; also called Hybridoma Clone 28b3
